Measured values published in paper PMC5742583, “A Functional Analysis on the Interspecies Interaction between Mouse LFA-1 and Human Intercellular Adhesion Molecule-1 at the Cell Level” (Frontiers in Immunology, 2017).

Tests used:
[1] = system: mouse macrophages; experiment: Mouse macrophage adhesion to human ICAM-1 (D1D5Fc)-coated plates; format: cell-based; settings: plates coated with 5 µg human D1D5Fc; compared with mouse D1D5Fc; MTT
Protocol: (§1) Mouse macrophages were differentiated from mouse bone marrow as previously described ([37]). Briefly, bone marrow cells isolated from mouse femur were cultured in DMEM 10% FBS, 5% horse serum, and 30% supernatant of L929 cell culture as a source of M-CSF at a density of 10^6/cm^2 for 7–8 days. Macrophage differentiation was analyzed in the same way as human macrophages but using CD11b-APC and CD11c-PE (BD) antibodies.
(§2) Freshly isolated monocytes or differentiated macrophages were washed twice with PBS and incubated with trypsin (PAN Biotech) for 30 min at 37°C 5% CO2. After that, cells were scraped gently from the plate and resuspended at a final concentration of 10^6 cells/ml in complete RPMI medium. Subsequently, 10^5 macrophages and 5 × 10^5 monocytes were added to each well and incubated with several concentrations of human D1D2, D1D2Fc, D1D5Fc, mouse D1D5Fc, control human IgG1 20 µg or lovastatin 100 µM at 37°C 5% CO2 overnight. Next day, every well was washed twice with PBS, complete RPMI medium was added and the number or adherent remaining cells was quantified by a MTT colorimetric test ([38]). In some experiments, plates previously coated with human and mouse D1D5Fc were used. […]
(§3) Figure 7 Human intercellular adhesion molecule (ICAM)-1 blocks LFA-1-mediated mouse macrophage cell adhesion. […] (B) Macrophage phenotype was analyzed by flow cytometry testing the expression CD11b and CD11c. […]

[2] = system: LFA-1 in the mouse T cell line EL4; experiment: Binding of ICAM-1 chimeras to LFA-1 on EL4 cells by flow cytometry; format: cell-based; settings: mouse or human D1D5Fc 0.1 and 5 µg, 4°C 45 min; representative experiment
Protocol: The ability of human D1D2Fc and mouse and human D1D5Fc to recognize LFA-1 on mouse cells was analyzed by flow cytometry in the mouse thymic lymphoma cell line EL4. EL4 cells were incubated with different concentrations of human D1D2Fc, mouse and human D1D5Fc and human IgG1 control at 4°C for 45 min, washed twice with FACS buffer (PBS, 5% FCS, 0.1% NaN3), and then incubated with PE-conjugated goat anti-human IgG (Fcγ fragment specific; Jackson ImmunoResearch). After a washing step with FACS buffer, cells were analyzed by FACS using a FACS Calibur with CellQuest Pro software (BD). As control cells were incubated with an antibody against mouse CD11a (LFA-1) before adding human D1D2Fc.
Figure 2 Analysis of D1D2Fc binding to LFA-1 in EL4 cells by flow cytometry. (A) Different amounts of D1D2Fc (0.1, 1, and 10 µg) or human IgG1 control (10 µg) were incubated with EL4 cells. After washing out non-bound proteins, cells were incubated with PE-conjugated goat anti-human IgG Fcγ Ab and analyzed by flow cytometry. As a control EL4 cells were pretreated with a mouse LFA-1 blocking antibody (anti LFA-1) before incubating with 10 µg of D1D2Fc. Histograms show a representative experiment. […] After washing out non-bound proteins, cells were incubated with PE-conjugated goat anti-human IgG Fcγ Ab and analyzed by flow cytometry. […]

[3] = system: human LFA-1; settings: purified cell-free models; ref [29]; cited from earlier work
Text: Humanized mice are widely used as in vivo models to study the molecular basis of immune-related disorders as well as the efficacy of potential drugs ([23]). In these mice, the native gene of interest is replaced by its human homolog or the immune system is eliminated and reconstituted with its human counterpart. In addition, these mice can be used to enhance the engraftment of human cancer cells allowing in vivo studies of cancer progression and treatment. Here, a major obstacle to analyze human cell function, either healthy or transformed, and disease is the lack of species cross-reactivity o ...

[4] = system: gp33-pulsed EL4 cells killed by mouse Tc cells (ICAM-1/LFA-1); experiment: CD8+ T cell-mediated cytotoxicity on EL4; format: cell-based; settings: ICAM-1 proteins, several (increasing) amounts, preincubation 45 min 37°C, effector:target 10:1, 4 h, annexin-V/7-AAD by FACS, three experiments by duplicate
[5] = system: mouse macrophages; experiment: Mouse macrophage adhesion to mouse ICAM-1 (D1D5Fc)-coated plates; format: cell-based; settings: plates coated with 5 µg mouse D1D5Fc; compared with human D1D5Fc; MTT
Protocol: as §1, §2, §3

Molecule | adhesion of mouse macrophages to coated plate [1] | binding to EL4 cells [2] | binding to human LFA-1 [3] | inhibition of Tc cell-mediated cell death of EL4 [4] | inhibition of Tc cell-mediated cell death of EL4 ([4]; listed as mouse ICAM-1 (D1D5Fc)) | adhesion of mouse macrophages to coated plate [5]
human D1D5Fc: human Fc chimera containing the five extracellular domains of ICAM-1, R&D systems (protein, left off: Fc, end not stated, kept, human Fc chimera containing the five extracellular domains of ICAM-1, R&D systems) QTSVSPSKVILPRGGSVLVTCSTSCDQPKLLGIETPLPKKELLLPGNNRKVYELSNVQEDSQPMCYSNCPDGQSTAKTFLTVYWTPERVELAPLPSWQPVGKNLTLRCQVEGGAPRANLTVVLLRGEKELKREPAVGEPAEVTTTVLVRRDHHGANFSCRTELDLRPQGLELFENTSAPYQLQTFVLPATPPQLVSPRVLEVDTQGTVVCSLDGLFPVSEAQVHLALGDQRLNPTVTYGNDSFSAKASVSVTAEDEGTQRLTCAVILGNQSQETLQTVTIYSFPAPNVILTKPEVSEGTEVTVKCEAHPRAKVTLNGVPAQPLGPRAQLLLKATPEDNGRSFSCSATLEVAGQLIHKNQTRELRVLYGPRLDERDCPGNWTWPENSQQTPMCQAWGNPLPELKCLKDGTFPLPIGESVTVTRDLEGTYLCRARSTQGEVTRKVTVNVLSPRYE | similarly adhered | binding of human ICAM-1 was higher than binding of mouse ICAM-1 |  |  |  | 
mouse ICAM-1: mouse ICAM-1, purified cell-free models of ref [29] (protein, UniProt P13597 28-537, looked up) Intercellular adhesion …: QVSIHPREAFLPQGGSVQVNCSSSCKEDLSLGLETQWLKDELESGPNWKLFELSEIGEDSSPLCFENCGTVQSSASATITVYSFPESVELRPLPAWQQVGKDLTLRCHVDGGAPRTQLSAVLLRGEEILSRQPVGGHPKDPKEITFTVLASRGDHGANFSCRTELDLRPQGLALFSNVSEARSLRTFDLPATIPKLDTPDLLEVGTQQKLFCSLEGLFPASEARIYLELGGQMPTQESTNSSDSVSATALVEVTEEFDRTLPLRCVLELADQILETQRTLTVYNFSAPVLTLSQLEVSEGSQVTVKCEAHSGSKVVLLSGVEPRPPTPQVQFTLNASSEDHKRSFFCSAALEVAGKFLFKNQTLELHVLYGPRLDETDCLGNWTWQEGSQQTLKCQAWGNPSPKMTCRRKADGALLPIGVVKSVKQEMNGTYVCHAFSSHGNVTRNVYLTVLYHSQNNWTIIILVPVLLVIVGLVMAASYVYNRQRKIRIYKLQKAQEEAIKLKGQAPPP |  |  | binds human LFA-1 |  |  | 
mouse D1D5Fc: mouse Fc chimera containing the five extracellular domains of ICAM-1, R&D systems (protein, left off: Fc, end not stated, kept, mouse Fc chimera containing the five extracellular domains of ICAM-1, R&D systems) QVSIHPREAFLPQGGSVQVNCSSSCKEDLSLGLETQWLKDELESGPNWKLFELSEIGEDSSPLCFENCGTVQSSASATITVYSFPESVELRPLPAWQQVGKDLTLRCHVDGGAPRTQLSAVLLRGEEILSRQPVGGHPKDPKEITFTVLASRGDHGANFSCRTELDLRPQGLALFSNVSEARSLRTFDLPATIPKLDTPDLLEVGTQQKLFCSLEGLFPASEARIYLELGGQMPTQESTNSSDSVSATALVEVTEEFDRTLPLRCVLELADQILETQRTLTVYNFSAPVLTLSQLEVSEGSQVTVKCEAHSGSKVVLLSGVEPRPPTPQVQFTLNASSEDHKRSFFCSAALEVAGKFLFKNQTLELHVLYGPRLDETDCLGNWTWQEGSQQTLKCQAWGNPSPKMTCRRKADGALLPIGVVKSVKQEMNGTYVCHAFSSHGNVTRNVYLTVLYHSQNN |  | bound to EL4 cells |  | similarly prevented cell death | inhibited cell death | similarly adhered
